According to patent US20200397913A1, “AXL-SPECIFIC ANTIBODY-DRUG CONJUGATES FOR CANCER TREATMENT” (GENMAB A/S, priority 2015, published 2020):
Marks after values point to notes of the source that are not given here.

What was measured:
CV1664 tumors = experiment: Cervical cancer PDX model CV1664; type: in vivo, BALB/c nude mice
Method: Inoculation of tumor fragments into BALB/c nude mice and randomization was performed as described in Example 21.

ES0195 tumors = experiment: Esophageal cancer PDX model ES0195; type: in vivo, BALB/c nude mice; details: 20 mg/kg i.p. at day 0, 7 and 14
Method: Tumor fragments from donor mice bearing patient-derived esophageal xenografts (ES0195) were used for inoculation into BALB/c nude mice. Each mouse was inoculated subcutaneously at the right flank with one tumor fragment (2-3 mm in diameter) and tumors were allowed to grow until the tumor volume was about 150 mm^3. […] The antibodies and ADCs were dosed intravenously (i.v.) at 4 mg/kg at day of randomization (day 0) and day 7. Paclitaxel was dosed intra-peritoneally (i.p.) at 20 mg/kg at day 0, 7, and 14. Tumor volumes (mm^3) were monitored twice weekly and were calculated from caliper (PLEXX) measurements as: 0.52×(length)×(width)^2.

A431 cells = experiment: Antibody-dependent cell-mediated cytotoxicity (51Cr release); type: cell-based, human; details: concentrations up to 10 μg/mL
Method: The ability of anti-AXL antibodies to induce ADCC of A431 epidermoid carcinoma cells was determined as explained below. As effector cells, peripheral blood mononuclear cells from healthy volunteers (UMC Utrecht, The Netherlands) were used.
A431 cells were collected (5×10^6 cells) in culture medium (RPMI 1640 culture medium supplemented with 10% fetal calf serum (FSC)), to which 100 μCi ^51Cr (Chromium-51; Amersham Biosciences Europe GmbH, Roosendaal, The Netherlands) had been added, and the mixture was incubated in a 37° C. water bath for 1 hour (hr) while shaking. After washing of the cells (twice in PBS, 1200 rpm, 5 min), the cells were resuspended in RPMI1640/10% FSC and counted by trypan blue exclusion. Cells were diluted to a density of 1×10^5 cells/mL.
Peripheral blood mononuclear cells (healthy volunteers, UMC Utrecht, Utrecht, The Netherlands) were isolated from 45 mL of freshly drawn heparin blood by Ficoll (Bio Whittaker; lymphocyte separation medium, cat 17-829E) according to the manufacturer's instructions. After resuspension of cells in RPMI1640/10% FSC, cells were counted by trypan blue exclusion and diluted to a density of 1×10^7 cells/mL.
50 μl of ^51Cr-labeled targets cells were pipetted into 96-well plates, and 50 μl of antibody were added, diluted in RPMI1640/10% FSC (3-fold dilutions at final concentrations range 0.01-10 μg/mL). Cells were incubated (room temperature (RT), 15 min), and 50 μl effector cells were added, resulting in an effector to target ratio of 100:1 (for determination of maximal lysis, 100 μl 5% Triton-X100 was added instead of effector cells; for determination of spontaneous lysis, 50 μL target cells and 100 μL RPMI1640/10% FSC were used). Cells were incubated overnight at 37° C. and 5% CO2. After spinning down cells (1200 rpm, 10 min), 70 μL of supernatant was harvested into micronic tubes, and counted in a gamma counter. The percentage specific lysis was calculated as follows:
% specific lysis=(cpm sample−cpm target cells only)/(cpm maximal lysis−cpm target cells only),
wherein cpm is counts per minute.

[1] = system: MDA-MB-231 and Calu-1 cells; experiment: Internalization of cell surface bound HuMab-AXL by flow cytometry; type: cell-based, human; details: 1 hour 4° C, then overnight 37° C versus 4° C
Method: Internalization of cell surface bound HuMab-AXL antibodies to MDA-MB-231 and Calu-1 cells (human lung carcinoma cell line; ATCC, catalognumber HTB-54) was evaluated by flow cytometry. 50,000 cells were seeded in 96-well tissue culture plates and allowed to attach for 6 hrs at 37° C. Plates were incubated at 4° C. for 30 minutes before incubation with serial dilutions of AXL-antibodies (final concentration range 0.0032-10 μg/mL) at 4° C. for 1 hour. Subsequently, the medium was replaced by tissue culture medium without antibody and cells were incubated overnight (16-18 hours) at 37° C. or 4° C. […] Finally, cells were washed twice in PBS/0.1% BSA/0.02% azide, resuspended in 120 μL PBS/0.1% BSA/0.02% azide and analyzed on a FACS Cantoll (BD Biosciences).
(§1) Binding curves were analyzed using non-linear regression (sigmoidal dose-response with variable slope) using GraphPad Prism V5.04 software (GraphPad Software, San Diego, Calif., USA).

SKMEL147 tumors = experiment: SKMEL147 melanoma xenograft model; type: in vivo, NMRI nude mice; details: 4 mg/kg i.v. on day 12 and day 19 after tumor cell injection
[2] = target: T1, AXLECDHis (extracellular domain of human AXL) (Homo sapiens, UniProt P30530); experiment: Binding affinity by Bio-Layer Interferometry (Octet); details: soluble AXLECDHis, 30° C, 1:1 model
T1 construct: the extracellular domain (ECD) of human AXL (aa 1-447) with a C-terminal His tag (AXLECDHis); His tag (C); made in house; host or cells: HEK-293F

[3] = target: T2, human AXL with a mouse ECD (Mus musculus, UniProt Q00993, A791T/A867T/C878S/D603E/D853E/E609A/F637Y/G606S/G869S/H824Y/L452V/L825P/L872Q/P881A/R785Q/R828P/S823G/S856P/S873P/T871A/V766A); experiment: Flow cytometry binding to HEK293T cells transfected with human AXL with mouse ECD; details: 0.0024-10 μg/mL
T2 construct: aa 1-441); expressed in transfected cells; host or cells: HEK293T

human AXL = target: T3, human AXL (Homo sapiens, UniProt P30530); experiment: Flow cytometry binding to HEK293T cells transfected with full length human AXL; details: at least 3 experiments
T3 construct: expression constructs for full length human AXL; expressed in transfected cells; host or cells: HEK293T

[4] = target: T4, human AXL with a cynomolgus monkey extracellular domain (ECD) (Homo sapiens, UniProt P30530, P441T/S191N/S285L/T105A/T112A/T125N/T443A); experiment: Flow cytometry binding to HEK293T cells transfected with human AXL with cynomolgus ECD; details: at least 3 experiments
T4 construct: aa 1-447); expressed in transfected cells; host or cells: HEK293T

[5] = target: Gas6 binding to AXL on A431 cells (Homo sapiens, UniProt P30530); experiment: Gas6 binding to A431 cells pre-incubated with AXL antibodies; parameters: endogenous in cells; host or cells: A431; details: pre-incubation with 10 μg/mL antibody; control antibody b12
Method: Alternatively, A431 cells were pre-incubated with 10 μg/mL AXL antibodies (15 minutes, 4° C.) to assess if the AXL ligand Gas6 could still bind in presence of AXL antibodies. […] After washing three times in PBS/0.1% BSA/0.02% azide, cells were incubated with mouse anti-Gas6 IgG2a (R&D Systems; cat no. MAB885) at 4° C. for 30 min. After washing three times in PBS/0.1% BSA/0.02% azide, cells were incubated with FITC-labelled goat anti-mouse IgG (Dako, Heverlee, Belgium; cat no. F049702) at 4° C. for 30 min in the dark. Next, cells were washed twice in PBS/0.1% BSA/0.02% azide, resuspended in 120 μL PBS/0.1% BSA/0.02% azide and analyzed on a FACS Cantoll (BD Biosciences).
as §1
Therefore, binding of Gas6 to A431 cells that had been pre-incubated with 10 μg/mL AXL antibodies was tested as described in Example 2.

[6] = target: T5, human AXL transiently expressed by HEK-293F cells (Homo sapiens, UniProt P30530); experiment: Homogeneous antigen specific screening assay (FMAT); details: binding to human AXL on HEK-293F cells
T5 construct: HEK-293F cells transiently expressing full length human AXL; expressed in transfected cells; host or cells: HEK-293F

AXL on A431 cells = target: T6, AXL on A431 cells (Homo sapiens, UniProt P30530); experiment: Antibody binding to A431 cells with or without Gas6 pre-incubation
T6 construct: AXL-positive A431 cells were incubated; endogenous in cells; host or cells: A431

PAXF1657 tumors = experiment: PAXF1657 pancreas cancer PDX model; type: in vivo, NMRI nu/nu mice; details: dose not stated in the sentence (FIG. 10B, 10C)
Method: Human pancreas tumor tissue was subcutaneously implanted in the left flank of 5-7 weeks old female NMRI nu/nu mice. […] At day of randomization (day 0), the 3 ADCs were dosed intravenously (i.v.) at either 4 mg/kg or 2 mg/kg, and the control group received a single dose of IgG1-b12 (4 mg/kg). Tumor volumes (mm^3) were monitored twice weekly and were calculated from caliper (PLEXX) measurements as: 0.52×(length)×(width)^2.

T2 sequence (Q00993 19-888 with the stated changes): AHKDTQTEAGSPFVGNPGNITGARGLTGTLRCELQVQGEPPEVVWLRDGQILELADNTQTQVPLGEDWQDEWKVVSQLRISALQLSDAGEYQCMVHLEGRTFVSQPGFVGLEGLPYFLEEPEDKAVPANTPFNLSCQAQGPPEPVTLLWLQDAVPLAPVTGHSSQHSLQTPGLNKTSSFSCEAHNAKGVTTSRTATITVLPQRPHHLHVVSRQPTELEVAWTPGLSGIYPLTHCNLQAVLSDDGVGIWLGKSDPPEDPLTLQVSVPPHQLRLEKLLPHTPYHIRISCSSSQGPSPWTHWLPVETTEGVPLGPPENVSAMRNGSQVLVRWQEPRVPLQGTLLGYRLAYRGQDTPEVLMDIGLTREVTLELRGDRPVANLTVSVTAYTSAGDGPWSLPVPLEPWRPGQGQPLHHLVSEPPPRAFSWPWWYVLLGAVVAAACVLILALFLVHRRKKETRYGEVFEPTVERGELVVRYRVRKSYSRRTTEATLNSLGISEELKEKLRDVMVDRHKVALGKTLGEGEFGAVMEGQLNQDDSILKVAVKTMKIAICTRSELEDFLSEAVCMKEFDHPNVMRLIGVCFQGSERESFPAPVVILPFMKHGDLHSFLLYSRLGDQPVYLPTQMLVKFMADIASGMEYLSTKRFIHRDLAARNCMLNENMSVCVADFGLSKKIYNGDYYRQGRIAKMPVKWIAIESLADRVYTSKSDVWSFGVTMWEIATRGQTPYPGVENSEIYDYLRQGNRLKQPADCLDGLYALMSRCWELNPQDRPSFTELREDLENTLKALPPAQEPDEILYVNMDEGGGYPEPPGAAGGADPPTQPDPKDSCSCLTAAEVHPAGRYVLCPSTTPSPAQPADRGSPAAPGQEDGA

| Molecule | anti-tumor activity (CV1664 tumors; 20 mg/kg intraperitoneally at day 0 and 7) | anti-tumor activity (ES0195 tumors) | induction of ADCC (A431 cells) | anti-tumor activity (CV1664 tumors; 4 mg/kg at day 0 and 7) | internalization of membrane-bound antibody [1] | anti-tumor activity (SKMEL147 tumors) | Kdis [2] [s⁻¹] | Kon [2] [M⁻¹ s⁻¹] | binding to AXL with a mouse ECD [3] | Binding EC50 human AXL Average (s.d.) (human AXL) | Binding EC50 cynomolgus AXL Average (s.d.) [4] | Gas6 binding: Maximal binding in presence of AXL antibodies (% of binding in presence of control antibody) [5] [%] | Maximal binding [6] [Arbitrary units] | Antibody binding to A431 cells: EC50 w/o Gas6 mean (s.d.) (AXL on A431 cells; no Gas6 pre-incubation) | Antibody binding to A431 cells: EC50 in presence of Gas6 mean (s.d.) (AXL on A431 cells; pre-incubation with 10 μg/mL Gas6) | anti-tumor activity (PAXF1657 tumors) |
| --- | --- | --- | --- | --- | --- | --- | --- | --- | --- | --- | --- | --- | --- | --- | --- | --- |
| CC(=O)O[C@H]1C(=O)[C@@]2(C)[C@H]([C@H](OC(=O)c3ccccc3)[C@]3(O)C[C@H](OC(=O)[C@H](O)[C@@H](NC(=O)c4ccccc4)c4ccccc4)C(C)=C1C3(C)C)[C@]1(OC(C)=O)CO[C@@H]1C[C@@H]2O [paclitaxel, reference compound] | induced partial tumor regression | tumor growth inhibition |  |  |  |  |  |  |  |  |  |  |  |  |  |  |
| IgG1-AXL-107: human IgG1,κ anti-AXL antibody, VH SEQ ID NO:1, VL SEQ ID NO:2; Ig1 domain binding |  |  | did not induce significant ADCC | only induced minor inhibition of tumor growth | internalize | did not show tumor growth inhibition |  |  |  |  |  |  |  |  |  |  |
| IgG1-AXL-726-M101L: point mutant of IgG1-AXL-726, VH SEQ ID NO:32, VL SEQ ID NO:33 (antibody, V domains shown, homo sapiens) VH: QVQLQQWGAGLLKPSETLSLTCAIDGGSFSGYYWSWIRQPPGKGLEWIGEISHSGRTNYNPSLKSRVTISIDTSKNQFSLKLSSVAAADTAVYYCARFITLIRGAIITHFDYWGQGALVTVSS VL: DIQMTQSPSSLSASVGDRVTITCRASQGISSWLAWYQQKPEKAPKSLIYAASSLQSGVPSRFSGSGSGTDFTLTISSLQPEDFATYYCQQYHSYPYTFGQGTKLEIK |  |  | did not induce significant ADCC |  | internalize |  | 6.9e-05 | 210000 | not detectable | 0.184 (0.117) μg/mL | 0.250 (0.066) μg/mL |  |  |  |  |  |
| IgG1-AXL-148: human IgG1,κ anti-AXL antibody, VH SEQ ID NO:5, VL SEQ ID NO:6; Ig2 domain binding (antibody, V domains shown, homo sapiens) VH: EVQLLESGGGLVQPGGSLRLSCAASGFTFSSYAMTWVRQAPGKGLEWVSAISISGGSTFYADSVKGRFTISRDNSKNTLYLQMNSLRAEDTAVYYCRGYSGYVYDAFDFWGQGTMVTVSS VL: DIQMTQSPSSLSASVGDRVTITCRASQGISNWLAWYQQKPEKAPKSLIYAASSLQSGVPSRFSGSGSGTDFTLTISSLQPEDFATYYCQQYNSYPLTFGGGTKVEIK |  |  | did not induce significant ADCC |  | internalize |  | 0.0044 | 230000 | not detectable | 0.094 (0.059) μg/mL | 0.152 (0.080) μg/mL | 106 | 3499 | 0.11 (0.13) μg/mL | 0.20 (0.30) μg/mL | did not result in anti-tumor activity |
